These results are taken from paper PMC8188299.

The target in the test is Recombinant hACE2 protein fused with mFc, residues 19-740 (human) (UniProt Q9BYF1). Kind of test: SPR. (Surface plasmon resonance follows binding to a sensor surface in real time, without labels.)

pKd: −log10 of the molar value.

For orientation: pKd means the Kd on a negative log10 scale, so that one unit is a factor of ten.

Chain of UniProt Q9BYF1 (Q9BYF1 19-740): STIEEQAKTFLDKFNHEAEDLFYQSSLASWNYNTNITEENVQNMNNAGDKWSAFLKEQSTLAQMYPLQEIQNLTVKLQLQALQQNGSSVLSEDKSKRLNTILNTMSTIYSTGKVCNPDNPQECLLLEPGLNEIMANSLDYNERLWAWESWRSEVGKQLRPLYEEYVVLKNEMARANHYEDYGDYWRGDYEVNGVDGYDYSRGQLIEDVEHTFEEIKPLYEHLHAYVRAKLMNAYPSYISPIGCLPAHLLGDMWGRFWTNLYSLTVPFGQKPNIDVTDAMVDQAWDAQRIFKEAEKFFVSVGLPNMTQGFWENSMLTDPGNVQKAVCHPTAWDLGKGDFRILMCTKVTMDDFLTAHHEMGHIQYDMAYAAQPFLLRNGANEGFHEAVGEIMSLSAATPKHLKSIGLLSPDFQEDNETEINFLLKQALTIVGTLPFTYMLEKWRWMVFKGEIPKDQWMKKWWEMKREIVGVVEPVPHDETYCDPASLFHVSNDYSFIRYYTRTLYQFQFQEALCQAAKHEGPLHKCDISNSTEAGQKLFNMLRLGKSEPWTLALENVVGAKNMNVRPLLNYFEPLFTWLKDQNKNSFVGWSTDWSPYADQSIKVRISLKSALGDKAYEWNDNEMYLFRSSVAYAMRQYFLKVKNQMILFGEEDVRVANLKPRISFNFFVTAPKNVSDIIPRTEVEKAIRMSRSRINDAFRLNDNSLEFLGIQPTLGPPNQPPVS

With “Recombinant RsYN04 RBD protein, residues 309-527 (domain or fragment)”, the pKd is 4.80.
